In publication PMC3827224:

Biological target: rhodamine-labelled fibronectin from human plasma (human)

| Substance | decrease of rhodamine-fibronectin incorporation into the extracellular matrix of HDF fibroblasts (fluorescence plate assay), 500 nM bead-immobilized peptide, after 12 and 24 hours [%] |
| --- | --- |
| F1 functional upstream domain (FUD) peptide of Streptococcus pyogenes F1 (domain or fragment) | 80 |
| FnBPA-derived peptide containing fibronectin-binding repeats 1-11 (FnBR1-11) (domain or fragment) | 90 |
